Data from patent US20170320960A1 (AbbVie / Abbott, published 2017).
Read-outs that look alike come from different tables or passages of the source.

T1: hMFI2 Tf-like Domain 1 (TLD1), amino acids 20-357, displayed on yeast (human, UniProt P08582 20-357)
T1 construct: also called TFLD1
T1 sequence: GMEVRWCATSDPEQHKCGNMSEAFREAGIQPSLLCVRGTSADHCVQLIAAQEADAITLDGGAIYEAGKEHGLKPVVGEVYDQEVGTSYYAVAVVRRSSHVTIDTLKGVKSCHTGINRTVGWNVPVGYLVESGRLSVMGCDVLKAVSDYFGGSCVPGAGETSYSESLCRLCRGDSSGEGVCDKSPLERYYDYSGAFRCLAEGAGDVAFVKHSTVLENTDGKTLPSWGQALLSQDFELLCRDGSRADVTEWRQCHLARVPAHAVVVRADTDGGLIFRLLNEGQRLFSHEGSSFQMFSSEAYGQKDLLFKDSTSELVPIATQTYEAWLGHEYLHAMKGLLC


Key:
[1] = target: T1, hMFI2 Tf-like Domain 1 (TLD1), amino …; assay: flow cytometry on yeast displaying hMFI2 domains
[2] = target: T1, hMFI2 Tf-like Domain 1 (TLD1), amino …; assay: flow cytometry on yeast displaying hMFI2 domains; remark: listed apart in the source

binding result [1] | binding result [2] | Binder
binds |  | SC57.27 (antibody, V domains shown) VH: ELKLVESGGDLVKPGGSLKLSCAASGFSFNNYAMSWVRQTPEKRLEWVASISSGGTTFYPDSVKGRFTMSRDHARNILYLQMNSLRSEDTAMYYCVRGQWLSLYSMDYWGQGTSVTVSS VL: DIQMTQSPVSLSASVGETVTITCRASEIIYSYLAWYQQKQGKSPQLLVYNAKTLAEGVPSRFSGSGSGTQFSLKINSLQPEDFGTYYCQHHYGVPVTFGAGTKLELK
binds |  | SC57.2 (antibody, V domains shown) VH: QVQLKQSGPGLVQPSQSLSITCTVSGFSLTDYGVHWVRQSPGKGLDWLGVIWSGGNTDYNAAFISRLSISKDNSKSQIFFEMNSLQDTDTAIYYCARQLHYYGPFAYWGQGTLVTVSA VL: QIVLTQSPAIMSASPGEKVTMTCSASSSVSYMHWYQQKSGTSPKRWIYDTSKLASGVPVRFSGSGSGTSYSLTISSIEADDAATYYCQQWSRTPPTFGGGTKLEIK
binds |  | SC57.7 (antibody, V domains shown) VH: GVQVVESGGGVVQPGGSLKLSCAASGFTFSSYAMSWVRQTPEKRLEWVAYLSRGGGSTYYLDTVKGRFTISRDNAKNTLYLQMNSLKSEDTAMYYCARLDGYNWYFDVWGAGTPVTVSS VL: DIVMSQSPSSLAVSAGEKVTMSCKSSQSLLHSRIRKNYLAWYQQKPGQSPKLLIYWASTRESGVPDRFTGSGSGTDFTLTISSVQAEDLAVYYCKQSYNLFTFGGGTKLEIK
 | binds | SC57.48 (antibody, V domains shown) VH: GVQVVESGGGVVQPGGSLKLSCAASGFTFSSYAMSWVRQTPEKRLEWVAYLSRGGGSTYYLDTVKGRFTISRDNAKNTLYLQMNSLKSEDTAMYYCARLDGYNWYFDVWGAGTPVTVSS VL: DIVMSQSPSSLAVSAGEKVTMSCKSSQSLLHSRIRKNYLAWYQQKPGQSPKLLIYWASTRESGVPDRFTGSGSGTDFTLTISSVQAEDLAVYYCKQSYNLFTFGGGTKLEIK
